From PMC13087191 (Scientific Reports, 2026) come the findings set out here.

First the molecules themselves.
B2: UBXN7-SBP (natural protein, human, UniProt O94888 1-489, looked up)
chain: MAAHGGSAASSALKGLIQQFTTITGASESVGKHMLEACNNNLEMAVTMFLDGGGIAEEPSTSSASVSTVRPHTEEEVRAPIPQKQEILVEPEPLFGAPKRRRPARSIFDGFRDFQTETIRQEQELRNGGAIDKKLTTLADLFRPPIDLMHKGSFETAKECGQMQNKWLMINIQNVQDFACQCLNRDVWSNEAVKNIIREHFIFWQVYHDSEEGQRYIQFYKLGDFPYVSILDPRTGQKLVEWHQLDVSSFLDQVTGFLGEHGQLDGLSSSPPKKCARSESLIDASEDSQLEAAIRASLQETHFDSTQTKQDSRSDEESESELFSGSEEFISVCGSDEEEEVENLAKSRKSPHKDLGHRKEENRRPLTEPPVRTDPGTATNHQGLPAVDSEILEMPPEKADGVVEGIDVNGPKAQLMLRYPDGKREQITLPEQAKLLALVKHVQSKGYPNERFELLTNFPRRKLSHLDYDITLQEAGLCPQETVFVQERN
notes: UBXN7, human, wild type; also called SBP-tagged version of UBXN7; homolog of Ubx5; source: E. coli BL21 CodonPlus (DE3) RIPL, purified (Ni-NTA, SEC); not shown: SBP, C-terminal, kept

What all share (details): both partners purified
The test “UBXN7-SBP” has as its target B2. Briefly: pull-down; 1 µM UBXN7-SBP on streptavidin agarose with 1 µM p97, 1 µM human UN, 1 µM Yod1-C160S and 1 µM Ub(n)-TAIL, SEC buffer, 5 mM ATPγS, 1 h, 4 °C; eluted with 2 mM biotin; Coomassie.
Another test has as its target T1, Human p97 ATPase (human, UniProt P55072 1-806).
T1 construct: p97 (VCP), human, wild type; also called VCP; homolog of Cdc48; source: E. coli BL21 CodonPlus (DE3) RIPL, purified (Ni-NTA, SEC)
Described as above.

Another test addresses T2, human Npl4 (human, UniProt Q8TAT6 1-608).
T2 construct: Npl4, human; The plasmid paragraph tells of Npl4 in pET21 with a C-terminal His6 or FLAG-His6 tag and the purification paragraph of an untagged UN complex; neither says which holds for the human protein; also called hNpl4; source: purified; part of the 'human UN' complex
The description is as above.

The next test deals with T3, Cdc48-UN ATPase complex (S. cerevisiae, UniProt P25694 1-835; P53044 1-361; P33755 1-580).
T3 construct: Cdc48 ATPase of S. cerevisiae, wild type; Ufd1 of S. cerevisiae; Npl4 of S. cerevisiae; also called Cdc48 with the Ufd1-Npl4 (UN) complex; source: E. coli BL21 CodonPlus (DE3) RIPL, purified (Ni-NTA, SEC); Cdc48 and UN mixed; copies: 6 + +
Briefly: pull-down; 1 µM Otu1-C120S-FLAG on anti-FLAG M2 agarose with 1 µM Cdc48, 1 µM UN and 1 µM Ub(n)-TAIL, with or without 1 µM Ubx5, SEC buffer, 5 mM ATPγS, 1 h, 4 °C; eluted with 3xFLAG peptide; fluorescence scan and Coomassie.

T3 sequence (P25694 whole entry, chain 1 of 3): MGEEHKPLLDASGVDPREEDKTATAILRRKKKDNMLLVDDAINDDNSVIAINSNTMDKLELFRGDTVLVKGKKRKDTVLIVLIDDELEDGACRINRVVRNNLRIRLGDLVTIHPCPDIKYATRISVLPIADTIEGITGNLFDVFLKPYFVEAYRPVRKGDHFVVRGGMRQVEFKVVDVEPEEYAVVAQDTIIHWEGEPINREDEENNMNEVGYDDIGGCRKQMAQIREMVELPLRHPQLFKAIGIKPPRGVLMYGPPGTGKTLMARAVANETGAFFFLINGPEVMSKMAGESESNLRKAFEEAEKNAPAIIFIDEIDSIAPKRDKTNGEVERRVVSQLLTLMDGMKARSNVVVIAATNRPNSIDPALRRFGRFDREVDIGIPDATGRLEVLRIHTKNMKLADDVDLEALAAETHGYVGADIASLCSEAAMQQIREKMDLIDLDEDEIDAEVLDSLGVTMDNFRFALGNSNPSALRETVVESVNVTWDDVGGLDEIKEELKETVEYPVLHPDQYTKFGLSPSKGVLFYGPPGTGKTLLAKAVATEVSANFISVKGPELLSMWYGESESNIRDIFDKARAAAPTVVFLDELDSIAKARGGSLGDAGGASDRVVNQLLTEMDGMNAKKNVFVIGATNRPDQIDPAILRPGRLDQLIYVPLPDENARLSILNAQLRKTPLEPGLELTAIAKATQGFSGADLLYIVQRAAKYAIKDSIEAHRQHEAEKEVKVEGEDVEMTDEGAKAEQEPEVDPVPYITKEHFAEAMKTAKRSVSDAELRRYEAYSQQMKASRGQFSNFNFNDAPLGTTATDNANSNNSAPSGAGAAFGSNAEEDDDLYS
T3 sequence (P53044 whole entry, chain 2 of 3): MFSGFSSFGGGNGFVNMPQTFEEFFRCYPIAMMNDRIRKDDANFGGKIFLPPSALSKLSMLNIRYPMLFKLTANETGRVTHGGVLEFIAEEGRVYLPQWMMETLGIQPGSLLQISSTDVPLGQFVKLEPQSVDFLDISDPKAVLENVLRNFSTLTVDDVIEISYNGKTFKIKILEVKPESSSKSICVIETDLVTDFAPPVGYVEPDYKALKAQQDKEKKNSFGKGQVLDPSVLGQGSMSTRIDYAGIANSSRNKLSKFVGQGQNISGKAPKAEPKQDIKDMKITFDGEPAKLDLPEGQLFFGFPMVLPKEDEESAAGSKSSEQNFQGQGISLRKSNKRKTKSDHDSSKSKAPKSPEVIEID
T3 sequence (P33755 whole entry, chain 3 of 3): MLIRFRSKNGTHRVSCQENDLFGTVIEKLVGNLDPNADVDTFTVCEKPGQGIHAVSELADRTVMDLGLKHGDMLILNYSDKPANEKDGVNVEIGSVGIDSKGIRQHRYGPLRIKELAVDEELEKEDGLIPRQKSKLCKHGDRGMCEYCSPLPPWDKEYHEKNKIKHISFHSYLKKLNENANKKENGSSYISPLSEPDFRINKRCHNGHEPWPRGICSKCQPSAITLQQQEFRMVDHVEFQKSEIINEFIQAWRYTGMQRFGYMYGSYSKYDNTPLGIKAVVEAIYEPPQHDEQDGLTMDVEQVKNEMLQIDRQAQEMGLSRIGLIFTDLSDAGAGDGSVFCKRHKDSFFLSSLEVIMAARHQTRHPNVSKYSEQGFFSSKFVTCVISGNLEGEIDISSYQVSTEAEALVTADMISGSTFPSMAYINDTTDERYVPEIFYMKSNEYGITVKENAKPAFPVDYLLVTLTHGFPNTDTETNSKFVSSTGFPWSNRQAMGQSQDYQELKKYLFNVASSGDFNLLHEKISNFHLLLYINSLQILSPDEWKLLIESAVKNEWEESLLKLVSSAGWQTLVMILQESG
T2 sequence (Q8TAT6 whole entry): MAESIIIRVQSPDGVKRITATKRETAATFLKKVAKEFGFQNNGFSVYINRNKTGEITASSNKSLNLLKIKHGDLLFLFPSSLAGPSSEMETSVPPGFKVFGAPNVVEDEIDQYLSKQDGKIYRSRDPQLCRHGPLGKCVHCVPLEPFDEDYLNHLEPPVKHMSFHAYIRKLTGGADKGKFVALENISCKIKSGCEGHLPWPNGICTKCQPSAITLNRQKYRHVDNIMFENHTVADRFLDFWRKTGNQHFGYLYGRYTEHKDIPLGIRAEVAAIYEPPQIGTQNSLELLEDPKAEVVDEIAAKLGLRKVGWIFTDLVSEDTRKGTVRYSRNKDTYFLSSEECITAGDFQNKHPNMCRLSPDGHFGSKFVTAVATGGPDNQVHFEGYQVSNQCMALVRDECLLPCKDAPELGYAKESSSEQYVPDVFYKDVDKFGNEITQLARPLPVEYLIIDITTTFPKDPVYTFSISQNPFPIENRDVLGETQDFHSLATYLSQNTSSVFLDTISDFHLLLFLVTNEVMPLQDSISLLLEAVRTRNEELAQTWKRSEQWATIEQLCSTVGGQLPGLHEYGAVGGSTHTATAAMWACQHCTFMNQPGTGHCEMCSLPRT
T1 sequence (P55072 whole entry): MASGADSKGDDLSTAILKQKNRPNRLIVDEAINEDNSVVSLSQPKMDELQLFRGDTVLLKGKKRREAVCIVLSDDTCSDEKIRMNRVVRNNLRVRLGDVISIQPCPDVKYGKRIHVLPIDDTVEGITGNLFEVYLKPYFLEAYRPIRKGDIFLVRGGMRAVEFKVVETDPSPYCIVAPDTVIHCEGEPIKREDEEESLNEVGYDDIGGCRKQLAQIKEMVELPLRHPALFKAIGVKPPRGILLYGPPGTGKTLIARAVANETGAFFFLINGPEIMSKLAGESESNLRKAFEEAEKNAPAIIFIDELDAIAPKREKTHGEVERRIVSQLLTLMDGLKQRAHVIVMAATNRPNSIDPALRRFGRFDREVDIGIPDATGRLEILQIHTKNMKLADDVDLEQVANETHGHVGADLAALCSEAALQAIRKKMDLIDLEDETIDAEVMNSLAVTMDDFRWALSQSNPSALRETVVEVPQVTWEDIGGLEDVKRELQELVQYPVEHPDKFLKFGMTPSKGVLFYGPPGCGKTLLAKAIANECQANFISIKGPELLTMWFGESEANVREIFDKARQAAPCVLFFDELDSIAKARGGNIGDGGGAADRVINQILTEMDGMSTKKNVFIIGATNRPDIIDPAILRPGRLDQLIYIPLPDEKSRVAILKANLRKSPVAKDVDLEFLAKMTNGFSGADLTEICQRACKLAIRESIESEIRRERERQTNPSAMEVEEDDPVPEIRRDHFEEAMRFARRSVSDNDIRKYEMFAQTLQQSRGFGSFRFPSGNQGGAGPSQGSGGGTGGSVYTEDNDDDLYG

B1: Yod1-C160S (enzyme, human, UniProt Q5VVQ6 1-348, looked up)
chain: MFGPAKGRHFGVHPAPGFPGGVSQQAAGTKAGPAGAWPVGSRTDTMWRLRCKAKDGTHVLQGLSSRTRVRELQGQIAAITGIAPGGQRILVGYPPECLDLSNGDTILEDLPIQSGDMLIIEEDQTRPRSSPAFTKRGASSYVRETLPVLTRTVVPADNSSLFTSVYYVVEGGVLNPACAPEMRRLIAQIVASDPDFYSEAILGKTNQEYCDWIKRDDTWGGAIEISILSKFYQCEICVVDTQTVRIDRFGEDAGYTKRVLLIYDGIHYDPLQRNFPDPDTPPLTIFSSNDDIVLVQALELADEARRRRQFTDVNRFTLRCMVCQKGLTGQAEAREHAKETGHTNFGEV
notes: Yod1, human, with the active-site mutation C160S; also called homolog of Otu1; source: E. coli BL21 CodonPlus (DE3) RIPL, purified (Ni-NTA, SEC)
Consider B1, for which the binding result with UBXN7-SBP was “binds”.

Consider B2, for which the binding result with Human p97 ATPase and in the test with human Npl4 was “binds” each time.

B3: Otu1-C120S-FLAG (enzyme, S. cerevisiae, UniProt P43558 1-301, looked up)
chain: MKLKVTGAGINQVVTLKQDATLNDLIEHINVDVKTMRFGYPPQRINLQGEDASLGQTQLDELGINSGEKITIESSDSNESFSLPPPQPKPKRVLKSTEMSIGGSGENVLSVHPVLDDNSSLFHAIAYGIFKQDSVRDLREMVSKEVLNNPVKFNDAILDKPNKDYAQWILKMESWGGAIEIGIISDALAVAIYVVDIDAVKIEKFNEDKFDNYILILFNGIHYDSLTMNEFKTVFNKNQPESDDVLTAALQLASNLKQTGYSFNTHKAQIKCNTCQMTFVGEREVARHAESTGHVDFGQNR
notes: Otu1, deubiquitinating enzyme of S. cerevisiae (Yod1 in mammals), with the active-site mutation C120S; pET28 with an N-terminal His6-tag and a TEV-protease cleavage site followed by a FLAG tag; source: E. coli BL21 CodonPlus (DE3) RIPL, purified (Ni-NTA, SEC)
With B3, the binding result in the test with Cdc48-UN ATPase complex is recorded as “binds”.
